Columns and labels:
Assay in all cases: holdup assay
Parameters in all cases: key: below the threshold = too weak to quantify, mostly under pKd 3.1 to 4
SHROOM2, Q13796 = molecular target: T1, SHROOM2, Q13796
T1 sequence (Q13796 21-118, limits assumed, looked up): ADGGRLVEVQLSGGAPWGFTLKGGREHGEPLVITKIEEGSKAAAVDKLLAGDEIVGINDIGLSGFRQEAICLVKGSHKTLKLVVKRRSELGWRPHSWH

APBA3_2, O96018 = molecular target: T2, APBA3_2, O96018
T2 sequence (O96018 480-570, limits assumed, looked up): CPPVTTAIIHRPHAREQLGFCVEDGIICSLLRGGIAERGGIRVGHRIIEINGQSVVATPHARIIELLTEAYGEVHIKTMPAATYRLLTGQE

MPDZ_2, O75970 = molecular target: T3, MPDZ_2, O75970
T3 sequence (O75970 252-347, limits assumed, looked up): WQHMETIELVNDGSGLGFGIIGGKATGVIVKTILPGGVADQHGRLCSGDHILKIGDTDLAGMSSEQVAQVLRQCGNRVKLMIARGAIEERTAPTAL

DLG2_1, Q15700 = molecular target: DLG2_1, Q15700
USH1C_2, Q9Y6N9 = molecular target: T4, USH1C_2, Q9Y6N9
T4 sequence (Q9Y6N9 206-303, limits assumed, looked up): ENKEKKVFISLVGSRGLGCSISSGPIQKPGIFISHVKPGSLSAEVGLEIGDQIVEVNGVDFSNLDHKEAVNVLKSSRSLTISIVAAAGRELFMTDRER

TJP2_1, Q9UDY2 = molecular target: TJP2_1, Q9UDY2
DLG5_2, Q8TDM6 = molecular target: DLG5_2, Q8TDM6
AHNAK2, Q8IVF2 = molecular target: AHNAK2, Q8IVF2
RIMS1, Q86UR5 = molecular target: RIMS1, Q86UR5
PTPN13_4, Q12923 = molecular target: T5, PTPN13_4, Q12923
T5 sequence (Q12923 1783-1878, limits assumed, looked up): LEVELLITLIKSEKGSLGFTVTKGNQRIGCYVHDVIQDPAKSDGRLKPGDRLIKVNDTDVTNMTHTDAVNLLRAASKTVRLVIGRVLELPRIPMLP

PDZD11, Q5EBL8 = molecular target: T6, PDZD11, Q5EBL8
T6 sequence (Q5EBL8 42-139, limits assumed, looked up): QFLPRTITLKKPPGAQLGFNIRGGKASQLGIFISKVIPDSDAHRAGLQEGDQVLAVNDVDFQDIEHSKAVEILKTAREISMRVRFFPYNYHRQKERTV

MAGI3_3, Q5TCQ9 = molecular target: MAGI3_3, Q5TCQ9
PDLIM4, P50479 = molecular target: PDLIM4, P50479
RIMS2, Q9UQ26 = molecular target: RIMS2, Q9UQ26
PARD6B, Q9BYG5 = molecular target: T7, PARD6B, Q9BYG5
T7 sequence (Q9BYG5 152-260, limits assumed, looked up): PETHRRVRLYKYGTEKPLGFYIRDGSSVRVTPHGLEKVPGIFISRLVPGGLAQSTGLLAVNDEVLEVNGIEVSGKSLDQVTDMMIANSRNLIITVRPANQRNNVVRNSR

PDZRN3_2, Q9UPQ7 = molecular target: T8, PDZRN3_2, Q9UPQ7
T8 sequence (Q9UPQ7 414-513, limits assumed, looked up): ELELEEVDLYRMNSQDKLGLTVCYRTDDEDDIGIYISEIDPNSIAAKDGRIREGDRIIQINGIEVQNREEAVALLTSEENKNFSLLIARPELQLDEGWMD

PDZD2_4, O15018 = molecular target: T9, PDZD2_4, O15018
T9 sequence (O15018 723-823, limits assumed, looked up): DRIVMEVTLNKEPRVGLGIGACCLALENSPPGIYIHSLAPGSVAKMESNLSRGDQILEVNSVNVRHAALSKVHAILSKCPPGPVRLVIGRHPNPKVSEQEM

SYNPO2L, Q9H987 = molecular target: T10, SYNPO2L, Q9H987
T10 sequence (Q9H987 1-98, limits assumed, looked up): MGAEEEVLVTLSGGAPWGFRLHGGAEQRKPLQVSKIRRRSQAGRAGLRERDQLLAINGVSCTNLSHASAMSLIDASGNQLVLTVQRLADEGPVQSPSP

RGS12, O14924 = molecular target: T11, RGS12, O14924
T11 sequence (O14924 17-108, limits assumed, looked up): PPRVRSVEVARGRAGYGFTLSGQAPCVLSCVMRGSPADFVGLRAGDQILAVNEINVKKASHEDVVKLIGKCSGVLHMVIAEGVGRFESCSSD

MAGI2_1, Q86UL8 = molecular target: T12, MAGI2_1, Q86UL8
T12 sequence (Q86UL8 12-111, limits assumed, looked up): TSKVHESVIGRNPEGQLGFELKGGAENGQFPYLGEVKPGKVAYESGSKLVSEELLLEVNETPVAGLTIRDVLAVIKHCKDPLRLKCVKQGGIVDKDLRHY

TJP1_1, Q07157 = molecular target: TJP1_1, Q07157
Inadl_7, Q8NI35 = molecular target: Inadl_7, Q8NI35
PDZD8, Q8NEN9 = molecular target: T13, PDZD8, Q8NEN9
T13 sequence (Q8NEN9 361-459, limits assumed, looked up): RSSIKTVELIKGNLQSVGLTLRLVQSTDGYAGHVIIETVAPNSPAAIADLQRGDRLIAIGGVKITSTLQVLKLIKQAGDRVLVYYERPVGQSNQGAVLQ

NHERF4_4, Q86UT5 = molecular target: NHERF4_4, Q86UT5
GRIP2_7, Q9C0E4 = molecular target: GRIP2_7, Q9C0E4
[1] = plain residues with an end cap or a label only (N-terminal biotin on a linker: (peg)3)
[2] = modified: acetyl on K at position -1 from the C-terminal residue
[3] = modified: phospho on S at position -3 from the C-terminal residue

Sequence of PDLIM4, P50479 (P50479 1-83): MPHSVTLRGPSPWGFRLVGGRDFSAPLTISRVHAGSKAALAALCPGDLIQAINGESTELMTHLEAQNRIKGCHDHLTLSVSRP
Sequence of TJP2_1, Q9UDY2 (Q9UDY2 24-128): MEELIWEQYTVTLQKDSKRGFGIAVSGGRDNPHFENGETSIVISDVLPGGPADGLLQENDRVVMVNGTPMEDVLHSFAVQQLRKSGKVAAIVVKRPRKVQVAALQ
Sequence of MAGI3_3, Q5TCQ9 (Q5TCQ9 572-655): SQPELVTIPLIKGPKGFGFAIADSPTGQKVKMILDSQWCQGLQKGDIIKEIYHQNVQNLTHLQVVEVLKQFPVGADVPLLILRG
Sequence of RIMS2, Q9UQ26 (Q9UQ26 637-758): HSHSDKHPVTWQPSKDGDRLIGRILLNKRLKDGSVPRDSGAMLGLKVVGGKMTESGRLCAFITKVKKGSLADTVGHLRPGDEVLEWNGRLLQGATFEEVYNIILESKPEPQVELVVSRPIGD
Sequence of TJP1_1, Q07157 (Q07157 18-120): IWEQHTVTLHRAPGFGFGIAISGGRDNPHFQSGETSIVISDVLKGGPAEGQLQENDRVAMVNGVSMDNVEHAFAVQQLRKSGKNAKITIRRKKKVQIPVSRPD
Sequence of NHERF4_4, Q86UT5 (Q86UT5 464-550): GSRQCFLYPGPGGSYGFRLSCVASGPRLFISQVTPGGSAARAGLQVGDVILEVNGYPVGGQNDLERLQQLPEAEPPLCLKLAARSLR
Sequence of DLG5_2, Q8TDM6 (Q8TDM6 714-800): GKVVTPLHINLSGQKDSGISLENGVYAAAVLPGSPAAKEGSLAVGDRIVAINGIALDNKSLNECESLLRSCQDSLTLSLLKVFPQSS
Sequence of RIMS1, Q86UR5 (Q86UR5 584-692): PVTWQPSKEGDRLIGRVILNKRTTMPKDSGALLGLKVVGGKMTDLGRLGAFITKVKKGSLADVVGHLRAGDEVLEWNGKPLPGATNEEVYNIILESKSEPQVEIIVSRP
Sequence of AHNAK2, Q8IVF2 (Q8IVF2 108-193): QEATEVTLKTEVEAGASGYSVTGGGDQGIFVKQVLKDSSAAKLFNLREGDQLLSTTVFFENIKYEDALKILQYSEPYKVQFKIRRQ
Sequence of GRIP2_7, Q9C0E4 (Q9C0E4 934-1023): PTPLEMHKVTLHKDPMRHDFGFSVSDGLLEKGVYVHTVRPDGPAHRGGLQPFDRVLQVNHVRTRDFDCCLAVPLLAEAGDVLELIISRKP
Sequence of Inadl_7, Q8NI35 (Q8NI35 1219-1332): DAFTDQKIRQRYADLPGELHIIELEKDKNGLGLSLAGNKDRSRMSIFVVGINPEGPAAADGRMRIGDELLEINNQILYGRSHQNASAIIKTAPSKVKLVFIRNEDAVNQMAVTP

**Q.** For YDEPTTTTSVPL [SARS-Cov2-3a, P0DTC3], which pKd (SHROOM2, Q13796; [1]) is on record?
**A.** 3.81

**Q.** What about the pKd (APBA3_2, O96018; [1]) of the same binder?
**A.** below the threshold

**Q.** And the pKd (MPDZ_2, O75970; [1])?
**A.** below the threshold

**Q.** What about the pKd (DLG2_1, Q15700; [1]) of the same binder?
**A.** below the threshold

**Q.** What about the pKd (USH1C_2, Q9Y6N9; [1]) of the same binder?
**A.** below the threshold

**Q.** What about the pKd (TJP2_1, Q9UDY2; [1]) of the same binder?
**A.** below the threshold

**Q.** And the pKd (DLG5_2, Q8TDM6; [1])?
**A.** below the threshold

**Q.** And the pKd (AHNAK2, Q8IVF2; [1])?
**A.** below the threshold

**Q.** What about the pKd (RIMS1, Q86UR5; [1]) of the same binder?
**A.** below the threshold

**Q.** And the pKd (PTPN13_4, Q12923; [1])?
**A.** below the threshold

**Q.** What about the pKd (PDZD11, Q5EBL8; [1]) of the same binder?
**A.** below the threshold

**Q.** What about the pKd (MAGI3_3, Q5TCQ9; [1]) of the same binder?
**A.** below the threshold

**Q.** And the pKd (PDLIM4, P50479; [1])?
**A.** below the threshold

**Q.** What about the pKd (RIMS2, Q9UQ26; [1]) of the same binder?
**A.** below the threshold

**Q.** And the pKd (PARD6B, Q9BYG5; [1])?
**A.** below the threshold

**Q.** And the pKd (PDZRN3_2, Q9UPQ7; [1])?
**A.** below the threshold

**Q.** What about the pKd (PDZD2_4, O15018; [1]) of the same binder?
**A.** below the threshold

**Q.** And the pKd (SYNPO2L, Q9H987; [1])?
**A.** below the threshold

**Q.** And the pKd (RGS12, O14924; [1])?
**A.** below the threshold

**Q.** And the pKd (MAGI2_1, Q86UL8; [1])?
**A.** below the threshold

**Q.** And the pKd (TJP1_1, Q07157; [1])?
**A.** below the threshold

**Q.** And the pKd (Inadl_7, Q8NI35; [1])?
**A.** below the threshold

**Q.** What about the pKd (PDZD8, Q8NEN9; [1]) of the same binder?
**A.** below the threshold

**Q.** What about the pKd (NHERF4_4, Q86UT5; [1]) of the same binder?
**A.** below the threshold

**Q.** What about the pKd (GRIP2_7, Q9C0E4; [1]) of the same binder?
**A.** below the threshold

**Q.** Which results are given for DEDQHTQITKV [PTEN_Ac, P60484]?
**A.** pKd (SHROOM2, Q13796; [2]): below the threshold; pKd (APBA3_2, O96018; [2]): below the threshold; pKd (MPDZ_2, O75970; [2]): 4.3; pKd (DLG2_1, Q15700; [2]): 3.98; pKd (USH1C_2, Q9Y6N9; [2]): below the threshold; pKd (TJP2_1, Q9UDY2; [2]): 3.96; pKd (DLG5_2, Q8TDM6; [2]): below the threshold; pKd (AHNAK2, Q8IVF2; [2]): below the threshold; pKd (RIMS1, Q86UR5; [2]): below the threshold; pKd (PTPN13_4, Q12923; [2]): 4.96; pKd (PDZD11, Q5EBL8; [2]): below the threshold; pKd (MAGI3_3, Q5TCQ9; [2]): below the threshold; pKd (PDLIM4, P50479; [2]): below the threshold; pKd (RIMS2, Q9UQ26; [2]): below the threshold; pKd (PARD6B, Q9BYG5; [2]): below the threshold; pKd (PDZRN3_2, Q9UPQ7; [2]): below the threshold; pKd (PDZD2_4, O15018; [2]): below the threshold; pKd (SYNPO2L, Q9H987; [2]): below the threshold; pKd (RGS12, O14924; [2]): below the threshold; pKd (MAGI2_1, Q86UL8; [2]): below the threshold; pKd (TJP1_1, Q07157; [2]): 3.94; pKd (Inadl_7, Q8NI35; [2]): 4.2; pKd (PDZD8, Q8NEN9; [2]): below the threshold; pKd (NHERF4_4, Q86UT5; [2]): below the threshold; pKd (GRIP2_7, Q9C0E4; [2]): below the threshold

**Q.** Which results are given for RRVRKLPSTTL [RPS6KA1_-3P, Q15418]?
**A.** pKd (SHROOM2, Q13796; [3]): 3.71; pKd (APBA3_2, O96018; [3]): below the threshold; pKd (MPDZ_2, O75970; [3]): below the threshold; pKd (DLG2_1, Q15700; [3]): 3.69; pKd (USH1C_2, Q9Y6N9; [3]): below the threshold; pKd (TJP2_1, Q9UDY2; [3]): 3.57; pKd (DLG5_2, Q8TDM6; [3]): below the threshold; pKd (AHNAK2, Q8IVF2; [3]): 3.54; pKd (RIMS1, Q86UR5; [3]): below the threshold; pKd (PTPN13_4, Q12923; [3]): below the threshold; pKd (PDZD11, Q5EBL8; [3]): below the threshold; pKd (MAGI3_3, Q5TCQ9; [3]): below the threshold; pKd (PDLIM4, P50479; [3]): 3.63; pKd (RIMS2, Q9UQ26; [3]): below the threshold; pKd (PARD6B, Q9BYG5; [3]): below the threshold; pKd (PDZRN3_2, Q9UPQ7; [3]): 3.72; pKd (PDZD2_4, O15018; [3]): below the threshold; pKd (SYNPO2L, Q9H987; [3]): below the threshold; pKd (RGS12, O14924; [3]): below the threshold; pKd (MAGI2_1, Q86UL8; [3]): below the threshold; pKd (TJP1_1, Q07157; [3]): below the threshold; pKd (Inadl_7, Q8NI35; [3]): below the threshold; pKd (PDZD8, Q8NEN9; [3]): below the threshold; pKd (NHERF4_4, Q86UT5; [3]): below the threshold; pKd (GRIP2_7, Q9C0E4; [3]): below the threshold

Source: paper PMC9482650, “Quantitative fragmentomics allow affinity mapping of interactomes” (Nature Communications, 2022)
